System: Sau-PolC-ΔNΔExo (Staphylococcus aureus)
Assay: active site titration (pre-steady-state burst amplitude vs DNA, quadratic fit)
Conditions: Reaction buffer, salt, pH and temperature not given in the material; DNA annealed in 10 mM Tris-HCl pH 8, 1 mM EDTA, 100 mM NaCl; protein stored in 50 mM …

## primer/template (p/t) DNA
  Kd: 390 nM
